The values that follow come from PMC7423246, “A Peptide–Lectin Fusion Strategy for Developing a Glycan Probe for Use in Various Assay Formats” (Chemosensors (Basel, Switzerland), 2019).

The target of this assay is soy bean agglutinin conjugated to HRP (soy bean), P05046. In words: ELISA; soy bean agglutinin conjugated to HRP exposed to serial dilutions of PFA; colorimetric signal with TMB. For orientation: An ELISA detects its analyte on a solid surface through an enzyme-linked reagent.
Sequence of soy bean agglutinin conjugated to HRP (soy bean), P05046 (P05046 33-285): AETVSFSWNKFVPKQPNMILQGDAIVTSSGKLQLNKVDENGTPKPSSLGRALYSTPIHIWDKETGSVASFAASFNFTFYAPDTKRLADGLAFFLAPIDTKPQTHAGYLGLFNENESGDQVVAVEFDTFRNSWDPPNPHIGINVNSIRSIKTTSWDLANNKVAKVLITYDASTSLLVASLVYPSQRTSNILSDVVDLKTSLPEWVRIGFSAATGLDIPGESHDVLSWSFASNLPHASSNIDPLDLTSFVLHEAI

B1: Pseudomonas fluorescens agglutinin (PFA) (natural protein)
chain: MSKYAVANQWGGSSAPWHPGGTWVLGARDNQNVVAIEIKSGDGGKSFTGTMTYAGEGPIGFKAQRTGQNQYNVENQWGGNDAPWHPGGKWVIGGRDNQNVIALSVTSSDGGKNLSGTNTYANEGPIGFRGQIEVSHPQAPF
modifications: not checked
For orientation: Kd means the free concentration of one partner at which half of the binding sites on the other are occupied at equilibrium, for simple one-to-one binding. The low end stands for a tighter complex, the high end for a looser complex. Molecule B1 came in with a Kd of 4 nM.
